Source: the nanobody polyreactivity screen of Harvey et al. (2022)

Test: yeast display, Sf9 membrane polyspecificity reagent, FACS + sequencing; frameworks hold sequencing errors
Summary of the method: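 Nanobodies came from a synthetic yeast display library in Saccharomyces cerevisiae BJ5465, induced with galactose for 36–48 hours and stained for 1 hour at 4 °C with 10% biotinylated, detergent-solubilized Sf9 membrane reagent. Cells were enriched on streptavidin microbeads and then FACS-sorted, with low and high (top ~1%) gates set on anti-HA fluorescence for expression and streptavidin fluorescence for reagent binding. Each polyreactivity label reflects the gate a clone came from. Genes were amplified by colony PCR, sequenced by MiSeq 2 × 250 and filtered by CDR length.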

| Sequence | polyreactivity (PSR sort gate) |
| --- | --- |
| QVQLVESGGGLVQAGGSLRLSCAASGYTFSSNVMGWYRQAPGKERELVAAISANGARTYYADSVKGRFTISRDNAKNTVYLQMNSLKPEDTAVYYCAADYRWAGRYYYWGQGTQVTVSS | high polyreactivity |
| QVQLVESGGGLVQAGGSLRLSCAASGRIFGHYAMGWYRQAPGKERELVAAITRSGDRTYYADSVKGRFTISRDNAKNTVYLQMNSLKPEDTEVYYCAADVSAVQGYYYWGQGTQVTVSS | low polyreactivity |
| QVQLVESGGGLVQAGGSLRLSCAASGGTISYYAMGRYRQAPRKERELVAAINWSGASTYYADSVKGRFTNSRDNAKYTVYLELNSLKPEETAVYYCAADSIQYTARPYDYWGQGTQVTVSS | low polyreactivity |
| QVQLVESGGGLVQAGGSLRLSCAASGSTFAYYVMGWYRQAPGKERELVAAITGTGGSTYYADSVKGRFTISRDNAKNTVYLQLNSLKPEDTAVYYCAAETPIYYGYWYDSWGQGTQVTVSS | high polyreactivity |
| QVQLVESGGGLVQAGGSLRLSCAASGSIFYQNAMGWYRQAPGKEREFVAAITWIGGSTYYADSVKGRFTISRDNAKNSVYLQMNILKPEDTAVYYCAADSVDNIYYGFDYWGQGTQVTVSS | high polyreactivity |
| QVQLVESGGGLVQAGGSLRLSCAASGSIFSVYAMGWYRQAPGKEREFVASISGGSGRTYYADSVKGRFTISRDNAKNTVYLQMNSLKPEDTAVYYCDAVLRYTSLSHDYHYKYDYWGQGTQVTVSS | low polyreactivity |
| QVQLVESGGGLVQAGGSLRLSCAASGFTFEDNTMGGYRQAPGKERELVAAITWGGVSTYYADSVKGRFTISRDNAKKTVYLQMNSLKPEDTAVYYCARDYDVYTVFLMDYWGQGTQVTVSS | low polyreactivity |
| QVQLQESGGGLVQAGGSLRLSCAASGYISFSGYMGRYRQAPGKEREFVDSITPGRSTYYADSVKGRFTISRDNAENTVYLQMNSLKPEDTAVYYCAADDSRTEQHAYWGQGTQVTVSS | high polyreactivity |
| QVQLVESGGGLVQAGGSLRLSCAASGRIFRFYAMGWYRQAPGKERELVAAISWRGGRTYYADSVKGRFTISRDNAKNTVYLQMNSLKPEDTAVYYCNADKYETSGWKYDSWGQGTQVTVSS | low polyreactivity |
| QVQLEESRGGLVQAGGSLRLSCAASGLTSRQYAMGWYSQAPGKERELVAAITLRDGSTYYADSVKGRFTISRDNAKNTDYLQMNSLKPEDTAVYYCARRYLGLYSHFDYWGQGTQVTVSS | high polyreactivity |
| QVQLVESGGGLVQAGGRLSLSCAASGSTLWGYAMGWYRQAPGKERELVATINQSAGSTYYADSVKGRFTISRDHAKNSVYLQMHSLKPEVTAVYYCAAEALVQFSYDYWGQGTQVTVSS | low polyreactivity |
| QVQLVESGGGLVQAGGSLRLSCAASGRTFFENAKGWYRQAPGKEREFVAAISYNGGSTYYADSVKGRFTISRDNAKNTVYLQMNSLKPEDTAVYYCAADPNYGYDYWGQGTQVTVSS | low polyreactivity |
| QVQLVESGGGLVQAGGSLRLSCAASGINYSRYAMGWYRQAPGKERELVAAISSGGSTNYADSVKGRFTISRDNAKNTVYLQMNSLKPEDTAVYYCAAETRLHRQDYDYWGQGTQVTVSS | low polyreactivity |
| QVQLVESAGGLVQAGGSLSLSCAASGLTFPWYAMGWYRQAPGKERELVAAISSSSGSTYYADSVKGRFTISRDNAKNTVYLQMNSLKPEDTAVYYCAAGYPGGHYDYWGQGTQVTVSS | high polyreactivity |
| QDQLVESGGGLVQAGGSLRLSCAASGFTFGYYVMGWYRQAPGKERELVAAITQRGGSTYADSVKGRFTISRDNAKNTVYLQMNSLKPEDTAVYYCAAPIYNGYASWQVYYWGQGTQVTVSS | high polyreactivity |
| QVQLVESGGGLVQAGGSLRLSCAASGFSFDSNAMGWYRQAPGKERELVAVITSSGGRTYYADSVKGRFTISRDNAKNTVYLQMNSLKPEDTAVYYCAAAKKFFWYEYDYWGQGTQVSVSS | high polyreactivity |
| QVQLVESGGGLVQAGGSLRLSCAASGRIFDGYAMGWYRQAPGKERELVASISYDGGSTYYADSVQGRFTISRDNAKNTVYLQMNSLKPEDTAVYYCAAVYRRRSYTFYYWGQGTQVTVSS | high polyreactivity |
| QVQLVESGGGLVQAGGSLRLSCAASGITFTINAMGWYRQAPGKERELVAVIDVSGGSTDYADSVKGRFTISRDNAKNTVYLQMNSLKPEDTAVYYCAADEYDVYYYAYREYYWGQGTQVTVSS | low polyreactivity |
| QVQLVESGGGLVQAGGSLRLSCAASGLIFRYSGMGWYRQATGKERELVAAIRWSAGSTYYADSVKGRFTISRDNAKNTVYLQMNSLKPEDTAVYYCAARAPVAGYKYRYDYWGQGTQVTVSS | high polyreactivity |
| QVQLVESGGGLVQAGGSLRLSCAASGIIFTYYAMGWYRQAPGKERELVARISSSGGRTYYADSVKGRFTISRDNAKNTVYLQMNSLKPEDTAVYYCNAVTTKSFHRYDYWGQGTQVTVSS | high polyreactivity |
| QVQLVESGGGLVQAGGSLRLSCAASGSIFKYYAMGWYRQARGKERELVAVITSGGSTYYADSVKGLFTISRDNAKNTVYLQMNSLKPEDTAVYYCAAGVRAYNWGEYDYWGQGTQVTVSS | low polyreactivity |
| QVQLVESGGGLVQARGSLRLSCAASGSTFEHNAMGWYRQGPGKERELVAAISYSGGRTYYADSVKGRFTISRDNAKNTVYLQMNSLKTEDTAVYYCAAPYYSWPYYYWGLGTQVTVSS | high polyreactivity |

| Sequence | polyreactivity (PSR sort gate) |
| --- | --- |
| QVQLVESGGGLVQAGGSLRLSCAASGYTFRYYAMGWYRQAPGKERELVAAINWSGGSTYYADSVKGRFTISRDNAKNTVYLQNNSLKPEDTAVYYCAADPDGDLDIDYDYWGLGTQVTVSS | low polyreactivity |
| QVQLVESGGGLVQAGGSLRLSCPASGSIFDLYAMGWYRQAPGKERELVASIRYSGGRTYYADSVKGRFTISRDNAKNTVYLQMNSLKPEDTAVYYCNRDGGYTFIMDYWGQGNQVTVSS | low polyreactivity |
| QVQLVESGGGLVQAGGSLRLSCAASGSTFHTYAMGWYRQAPGKERELVAGITGSGDSTFYADSVKGRFTISRDNAKNTVYLQMNSLKPEDTAVYYCAVESLRDVFEYDYWGQGTQVTVSS | low polyreactivity |
| QVQLVESGGGLVQAGGSLRLSCAASGGILPKNAMGCYRQAPGKQRELVAAISTRGTSTYYADSVKGRFTISRDNAKNTVYLQMNSLKPEDTGVYYCATSRVYIGYDYWGQGTQETVSS | low polyreactivity |
| QVQLVESGGGLVQAGGSLRLSCAASGSILWENAKGWYRQAPGKERELVATISVSGGGTYYADSVKGRFTISRDNAKNTVYLQMNSLKPEDTAVYYCNARYGNESQGWEDYWGQGTQVTVSS | low polyreactivity |
| QVQLVESGGGLVQAGGSLRLSCAASGRTFKYYAMGWYSQAPGKERELVAAITRSGVSTSYADSVKGRFTISRDNAKNTVYLQMNSLKPEDTAVYYCNVYGYTYYTRGVGYWGQGTQVTVSS | high polyreactivity |
| QVQLVESGGGLVQAGGSLRLSCAASGRIFTIYAMGWYRQAPGKERELVAAISGGGGITNYADSVKGRFTISRDNAKNTVYLQMNSLKPEDTAVYYCAATPRAPRTISLYNYWGQGTQVTVSS | high polyreactivity |
| QVQLVESGGGLVQAGGSLRLSCAASGRIFGVYAMGWYRQAPGKERELVAAITRRGGTTYYADSVKGRFTISRDNAKNTVYLQMNSLKPEDTAVYYCAAVFVTQSFIYDYYYWGQGTQVTVSS | high polyreactivity |
| QVQLVESGGGLVQAGGSLRLSCAASGSTSDEYAMGWYRPAPGKERELVASISSDDTSTHYADSVKGRFTISRDNAKNTVYLQMNSLKPEDTAVYYCAARNTPAYIDYNYWGQGTQVTVSS | low polyreactivity |
| QVQIVESGGGLVQAGRSLRLSCAASGLIFRRYTMGWYRQAPGKERELVAAIRNSGSSTDYADSVKGRFTISRDNAKNTVYLQMNSLKPEYTAVYYCAKRSACKLTYDSWGQGTQVTGSS | low polyreactivity |
| QVQLVESGGGLVQAGGSLRLSCADSGLTFQRYAMGWYRQAPGKERELVAAISQRGSSTYYADSVKGRFTISRDNAKNTVYLQMNSLKPEDTAVYYCNARPYLFWLSIYDYWGQGTQVTVSS | low polyreactivity |
| QVQLVESGGGLVQAGGSLRLRCAASGSTFAYYAMGWYRQAPGKEREFVATITWTGGSTNYADSVKARFTISRDNAKNTVYLQMNSLKPEDTAVYYCAAAFVISYDYWGQGTQVTVSS | high polyreactivity |
| QVQLVESGGGLVQAGGSLRLSCAASGIIFLFYAMGWYSQAPGKERELVGSITWSGGSTYYADSVKGRFTISRDTAKNTVYLQMNRLKPEDTAVYYCAASVKIISYLGQSEFLGGELDYWGQGTQVTVSS | low polyreactivity |
| QVQLLESGGGLVQAGGSLRLTCAASGSTFRYNAMGWYRQAPGKERELVAAISSGSSTNYADSVKGRFTLSRDNAKNTVYLQMNSLKPEDTAVYYCAAQPGYYDDFYYWGQGTQVTVSS | low polyreactivity |
| QVQLVESGGGLVQAGGSLRLSCAASGRTFVRNAMGWSRQAPGKERELDAAITSGGSTYYADSVKGRFTISRDNAKNTVYLQMNSLKPEDTAVYYCAAVDRRYGPTYKMGYWGQGTQVTVSS | high polyreactivity |
| QVQLVESVGGLVQAGGSLRLSCAASGSTLFYNAMGWYRQAPGKERELVATISGGGVSTYYADSVKGRFTISRDNAKNSVYLQMNSLNPEDTAVYYCAAAGWSEGGYDYWGQGTQVTVSS | low polyreactivity |
| QVQLVESGGGLVKAGGSLRLSCAASGLTFTRYTMGWYRQAPGKERELVAAITSSGGSTYYADSVKGRFTISRDNAKNTVYLQRNSVKPEDTAVYYCAAPYPGTRGDGYWGLGTQVTVSS | high polyreactivity |
| QVHLVESGGGLVQAGGSLRLSCAASGLTFSSYSMGWYRQAPAKERELVATITSSGGDNTNYADSVKGRFTISRDNAKNTVYLQMNSLKPEDTAVYYFNKEGQQSYRWRMDYWGQGTQVTVSS | low polyreactivity |
| QVQLVESGGGLVQAGGSLRLSCAASGFTFRRYAMGWYRQAPGKERELVAAINKSGGSTYYADSVKGRFTISRDNAKNTVYLQMNSLKPEDTAVYYCAKPLTAYSGFDHWGQGTQVTVSS | high polyreactivity |
| QVQLVESGGGVVQAGGSLRLSCAASGFISKLYAMGWYRQAPGKEREMVAAISSSGTSTYYADSVKGRFTISRDHANNTVYLQMNSLKPEDTAVYYCNARWYVRAYEYDYWGQGTQVTVSS | low polyreactivity |
| QVQLVESVGGLVQAGGSLRLSCAASGSTFRRYAMGWSRQAPGKERELVASISRSGGSTYYADSVKGRFTISRDNAKNTVYLQMNSLKPEDTAVYYCAKKPYKSAYDYSSAYDYWGQGTQVTVSS | high polyreactivity |
